# PMC4390835
# Like-named read-outs stand apart in the source and are kept apart here.
# Assays:
# [1] = target: Lsp1, C-terminally tagged with mVenus or mCerulean (S. cerevisiae) (UniProt Q12230); test: FRET or BRET
# [2] = target: Lsp1, C-terminally tagged with mVenus or mCerulean (S. cerevisiae) (UniProt Q12230); test: FRET or BRET; remark: listed apart in the source
# [3] = target: Lsp1, C-terminally tagged with mVenus or mCerulean (S. cerevisiae) (UniProt Q12230); test: FRET or BRET; remark: listed apart in the source
# [4] = target: Pil1, C-terminally tagged with mVenus or mCerulean (S. cerevisiae) (UniProt P53252); test: FRET or BRET
# [5] = target: Pil1, C-terminally tagged with mVenus or mCerulean (S. cerevisiae) (UniProt P53252); test: FRET or BRET; remark: listed apart in the source
# [6] = target: Pil1, C-terminally tagged with mVenus or mCerulean (S. cerevisiae) (UniProt P53252); test: FRET or BRET; remark: listed apart in the source
# [7] = target: Pil1, C-terminally tagged with mVenus or mCerulean (S. cerevisiae) (UniProt P53252); test: FRET or BRET; remark: listed apart in the source
# [8] = target: Pil1, C-terminally tagged with mVenus or mCerulean (S. cerevisiae) (UniProt P53252); test: FRET or BRET; remark: listed apart in the source
# [9] = target: Pil1, C-terminally tagged with mVenus or mCerulean (S. cerevisiae) (UniProt P53252); test: FRET or BRET; remark: listed apart in the source
# [10] = target: Pil1, C-terminally tagged with mVenus or mCerulean (S. cerevisiae) (UniProt P53252); test: number and brightness
# [11] = target: Pil1, C-terminally tagged with mVenus or mCerulean (S. cerevisiae) (UniProt P53252); test: FRET or BRET; remark: listed apart in the source
FRET efficiency [1] [%],FRET efficiency [2] [%],FRET efficiency [3] [%],FRET efficiency [4] [%],FRET efficiency [5] [%],FRET efficiency [6] [%],FRET efficiency [7] [%],FRET efficiency [8] [%],FRET efficiency [9] [%],percent of Pil1-mVenus that corresponds to oligomers [10] [%],FRET efficiency [11] [%],Substance
30,20,20,–,–,–,–,–,–,–,–,"Lsp1, C-terminally tagged with mVenus or mCerulean (from UniProt Q12230 1-341) (natural protein)"
–,–,–,5,28,10,18,20,15,8,10,"Pil1, C-terminally tagged with mVenus or mCerulean (from UniProt P53252 1-339) (natural protein)"
